Results published in paper PMC7063449.

Target: bril-ACKR3WT (human) (UniProt P25106)
Assay: flow cytometry on cells

Chain of bril-ACKR3WT (human) (P25106 2-332): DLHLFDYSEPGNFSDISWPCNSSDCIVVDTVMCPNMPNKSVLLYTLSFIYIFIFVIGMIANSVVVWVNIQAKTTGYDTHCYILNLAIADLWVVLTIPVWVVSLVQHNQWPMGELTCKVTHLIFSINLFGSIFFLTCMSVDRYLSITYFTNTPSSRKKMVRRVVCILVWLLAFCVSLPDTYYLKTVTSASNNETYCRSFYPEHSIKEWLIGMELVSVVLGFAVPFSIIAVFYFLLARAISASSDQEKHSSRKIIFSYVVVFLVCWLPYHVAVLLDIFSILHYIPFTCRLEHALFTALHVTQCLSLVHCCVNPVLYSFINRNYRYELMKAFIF

dissociative half-life: 7.2 min
Substance: HA-tagged CXCL12P2G (from UniProt P48061 22-93) (ligand)
